Experimental data reported in WO2004074491A2 (dated 2004).

Biological target: T1, K88 pilus protein antigen (also known as the F4 fimbriae adhesin) (Escherichia coli (enterotoxigenic))
T1 construct: Used as ELISA coat and as the ligand amine-coupled to the CM5 SPR chip; also called K88 antigen; K88 pili
Test: SPR (Biacore), K88 pili coupled to a CM5 chip, purified antibody as analyte

T1 sequence (P14190 22-283): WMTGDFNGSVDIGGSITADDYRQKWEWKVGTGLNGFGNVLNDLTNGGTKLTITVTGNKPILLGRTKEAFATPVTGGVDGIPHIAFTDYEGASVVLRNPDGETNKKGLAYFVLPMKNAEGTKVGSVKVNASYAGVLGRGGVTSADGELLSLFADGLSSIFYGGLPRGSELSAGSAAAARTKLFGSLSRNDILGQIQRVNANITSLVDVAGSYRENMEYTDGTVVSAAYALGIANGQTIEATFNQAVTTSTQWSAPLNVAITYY

Binder | Kd [nM]
anti-K88 monoclonal IgG1 antibody 36/41 purified from hybridoma cells (antibody) chain 1: EVQLQQSGPELVKTGASVKISCKASDYSLTDYYMHWVKQSHGESLEWIGYINFYNGATNYNQKFKGKATFTVDTSSSTVYMQFNSLTSEDSAVYYCVREALLRNYAMDYWGQGTSVTVSSAKTTPPSVYPLAPGSAAQTNSMVTLGCLVKGYFPEPVTVTWNSGSLSSGVHTFPAVLQSDLYTLSSSVTVPSSTWPSETVTCNVAHPASSTKVDKKIVPRDCGCKPCICTVPEVSSVFIFPPKPKDVLTITLTPKVTCVVVDISKDDPEVQFSWFVDDVEVHTAQTQPREEQFNSTFRSVSELPIMHQDWLNGKEFKCRVNSAAFPAPIEKTISKTKGRPKAPQVYTIPPPKEQMAKDKVSLTCMITDFFPEDITVEWQWNGQPAENYKNTQPIMDTDGSYFVYSKLNVQKSNWEAGNTFTCSVLHEGLHNHHTEKSLSHSPGK chain 2: ENVLTQSPAIMSASPGEKVTMTCRASSSVSSRYLHWYQQKSGASPKLWIYSTSNLASGVPARFSGSGSGTSYSLTISSVEAEDAATYYCQQYSGYPWTFGGGTKLEIKRADAAPTVSIFPPSSEQLTSGGASVVCFLNNFYPKDINVKWKIDGSERQNGVLNSWTDQDSKDSTYSMSSTLTLTKDEYERHNSYTCEATHKTSTSPIVKSFNRNEC | 0.03
plant-produced anti-K88 antibody 36/41 with ER retention signal (corn, pTMR554) (antibody) chain 1: EVQLQQSGPELVKTGASVKISCKASDYSLTDYYMHWVKQSHGESLEWIGYINFYNGATNYNQKFKGKATFTVDTSSSTVYMQFNSLTSEDSAVYYCVREALLRNYAMDYWGQGTSVTVSSAKTTPPSVYPLAPGSAAQTNSMVTLGCLVKGYFPEPVTVTWNSGSLSSGVHTFPAVLQSDLYTLSSSVTVPSSTWPSETVTCNVAHPASSTKVDKKIVPRDCGCKPCICTVPEVSSVFIFPPKPKDVLTITLTPKVTCVVVDISKDDPEVQFSWFVDDVEVHTAQTQPREEQFNSTFRSVSELPIMHQDWLNGKEFKCRVNSAAFPAPIEKTISKTKGRPKAPQVYTIPPPKEQMAKDKVSLTCMITDFFPEDITVEWQWNGQPAENYKNTQPIMDTDGSYFVYSKLNVQKSNWEAGNTFTCSVLHEGLHNHHTEKSLSHSPGKSEKDEL chain 2: ENVLTQSPAIMSASPGEKVTMTCRASSSVSSRYLHWYQQKSGASPKLWIYSTSNLASGVPARFSGSGSGTSYSLTISSVEAEDAATYYCQQYSGYPWTFGGGTKLEIKRADAAPTVSIFPPSSEQLTSGGASVVCFLNNFYPKDINVKWKIDGSERQNGVLNSWTDQDSKDSTYSMSSTLTLTKDEYERHNSYTCEATHKTSTSPIVKSFNRNECSEKDEL | 0.03
